Paper PMC7305028
Read-outs that look alike come from different tables or passages of the source.

Columns and labels:
Experiment in all cases: native MS
FapF [1] = target: FapF
FapF [2] = target: FapF; remark: listed apart in the source
FapF [3] = target: FapF; remark: listed apart in the source

| Substance | stoichiometry N (FapF [1]) | stoichiometry N (FapF [2]) | stoichiometry N (FapF [3]) | stoichiometry N (per FapF trimer) (FapF [3]) |
| --- | --- | --- | --- | --- |
| FapF (natural protein) | 3 | 3 | 3 |  |
| FapE (natural protein) |  |  |  | 1 |
| FapD (natural protein) |  |  |  | 1 |
| FapC (natural protein) |  |  |  | 1 |
